The assay deals with T1, GAL4 DNA binding domain-NAC1 fusion, first 199 amino acids of NAC1 (plasmid pGBNAC1 1-199) (Arabidopsis thaliana).
T1 construct: Yeast two-hybrid bait used as the fixed partner for testing the deletions; also called pGBNACl1-199; 199 amino acid version
Kind of assay: yeast two-hybrid in HF7c, HIS3 reporter. An excerpt:
Two-hybrid analysis (Bartel et al., 1993; Fields and Song, 1989; Chevray and Nathans, 1992; Lee et al., 1995) was applied to dimerization analysis. The yeast strain HF7c (MATa ura3–52 his3–200 ade2–101 lys2–801 trp1–901 leu2–3,112 gal4–542 gal 80–538 LYS2::GAL1$UAS$-GAL1$TATA$-HIS3 URA3::GAL4_{17mers(x3)}-CyC1$TATA$-LacZ which contains the two reporter genes LacZ and HIS3 was used. Yeast cotransformation with plasmids carrying the different Gal4 DNA binding domain and the Gal4 activation domain fusion was performed by methods known to those of skill in the art. See, e.g., Burke and Olson, 1986; Rudolph et al., 1985; Sakai et al., 1984. Other conditions have been described in detail elsewhere and are well known to those of skill in the art. To corroborate the interaction between the two fusion proteins, â-galactosidase activity was assayed by a replica filter assay.

From patent publication US6844486 (TEMASEK LIFE SCIENCES LABORATORY, dated 2005) come the findings set out here.

B1: GAL4 activation domain-NAC1 fusion, NAC1 amino acids 143 to the C-terminus (plasmid pGANAC1 143-324) (other, not shown: large carriers; small tags and cut ends)
chain: FRLQGSHHPPNHSLSSPKEDWVLCRVFHKNTEGVICRDNMGSCFDETASASLPPLMDPYINFDQEPSSYLSDDHHYIINEHVPCFSNLSQNQTLNSNLTNSVSELKIPCKNPNPLFTGGSASATLTGLDSFCSSDQMVLRALLSQLTKIDGSLGPKESQSYGEGSSESLLTDIGIPSTVWNC
notes: Yeast two-hybrid prey
As for B1, the binding result is given as “no binding”.

B2: GAL4 activation domain-NAC1 fusion, first 142 amino acids of NAC1 (plasmid pGANAC1 1-142) (other, not shown: large carriers)
chain: METEEEMKESSISMVEAKLPPGFRFHPKDDELVCDYLMRRSLHNNHRPPLVLIQVDLNKCEPWDIPKMACVGGKDWYFYSQRDRKYATGLRTNRATATGYWKATGKDRTILRKGKLVGMRKTLVFYQGRAPRGRKTDWVMHE
notes: Yeast two-hybrid prey
As to B2, the binding result was “no binding”.
